pKd: −log10 of the molar value.
Columns and labels:
[1] = biological target: LTβR (lymphotoxin β receptor) expressed by cells (human) (UniProt P36941); assay: cell-based or functional assay
human LTβR:Fc (human) = human LTβR:Fc (human) (UniProt P36941); assay: SPR (BIAcore), receptor:Fc amine-coupled, LIGHT as analyte 100-500 nM
[2] = biological target: HVEM:Fc (extracellular region of HVEM, 1 to K184, fused to the Fc region of human IgG1) (human) (UniProt Q92956); assay: as above
[3] = biological target: mouse LTβR:Fc (amino acid residues 1 to Met221 of the extracellular domain of mouse LTβR) (mouse) (UniProt P50284); assay: ELISA, receptor:Fc capture, anti-FLAG detection
[4] = biological target: mouse HVEM:Fc (mouse HVEM Met1 to Ser205 fused to the Fc region of human IgG1) (mouse; human) (UniProt Q80WM9); assay: ELISA, receptor:Fc capture, anti-FLAG detection
[5] = biological target: HVEM:Fc (extracellular region of HVEM, 1 to K184, fused to the Fc region of human IgG1) (human) (UniProt Q92956); assay: SPR (BIAcore)
[6] = biological target: HVEM:Fc (extracellular region of HVEM, 1 to K184, fused to the Fc region of human IgG1) (human) (UniProt Q92956); assay: SPR (BIAcore), receptor:Fc amine-coupled, LIGHT mutant as analyte 100-500 nM

Chain of human LTβR:Fc (human) (P36941 31-227 limits assumed): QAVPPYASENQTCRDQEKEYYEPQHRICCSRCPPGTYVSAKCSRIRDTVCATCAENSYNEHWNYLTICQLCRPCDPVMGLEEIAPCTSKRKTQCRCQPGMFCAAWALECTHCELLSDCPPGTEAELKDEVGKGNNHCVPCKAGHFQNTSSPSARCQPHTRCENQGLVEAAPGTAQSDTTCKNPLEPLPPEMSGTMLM
Chain of HVEM:Fc (extracellular region of HVEM, 1 to K184, fused to the Fc region of human IgG1) (human) (Q92956 39-184 limits assumed): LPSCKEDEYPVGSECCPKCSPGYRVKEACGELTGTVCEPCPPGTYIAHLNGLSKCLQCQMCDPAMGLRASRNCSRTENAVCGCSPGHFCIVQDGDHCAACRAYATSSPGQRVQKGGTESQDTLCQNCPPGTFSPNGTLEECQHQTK
Chain of mouse HVEM:Fc (mouse HVEM Met1 to Ser205 fused to the Fc region of human IgG1) (mouse; human) (Q80WM9 39-205): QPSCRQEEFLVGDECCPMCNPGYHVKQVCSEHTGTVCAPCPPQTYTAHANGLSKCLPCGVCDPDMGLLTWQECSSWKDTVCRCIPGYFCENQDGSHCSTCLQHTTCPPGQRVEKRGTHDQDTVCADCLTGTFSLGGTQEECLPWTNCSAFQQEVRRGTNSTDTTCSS
Chain of mouse LTβR:Fc (amino acid residues 1 to Met221 of the extracellular domain of mouse LTβR) (mouse) (P50284 31-221 limits assumed): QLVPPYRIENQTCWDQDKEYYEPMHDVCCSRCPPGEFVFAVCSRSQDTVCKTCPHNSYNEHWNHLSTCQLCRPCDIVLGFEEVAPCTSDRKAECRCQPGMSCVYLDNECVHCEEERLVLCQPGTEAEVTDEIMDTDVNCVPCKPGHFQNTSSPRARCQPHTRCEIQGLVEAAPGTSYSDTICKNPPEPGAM

pKd (human LTβR:Fc (human))	koff (human LTβR:Fc (human))	kon (human LTβR:Fc (human))	pKd [2]	koff [2]	kon [2]	fold lower affinity (against the human receptors) [3]	fold lower affinity (against the human receptors) [4]	Substance	concentration for complete inhibition of HCMV cytopathic effect [1]	dose for 50% cytotoxicity to HT29 cells (MTT, with IFNγ) [1]	fold induction of ICAM expression by NHDF cells (flow cytometry, 5 nM) [1]	growth inhibition of HT29 cells by LIGHT (0.25 nM), MTT after 72 h [1]	fold lower affinity than LIGHT t66 [5]	fold induction of ICAM expression by NHDF cells (flow cytometry, 20 nM) [1]	pKd [6]	koff [6]	kon [6]
8.35	0.00012 s⁻¹	27000 M⁻¹ s⁻¹	8.41	4.8e-05 s⁻¹	12000 M⁻¹ s⁻¹	10 fold	10 fold	LIGHTt66-FLAG (recombinant soluble homotrimeric human LIGHT lacking the N-terminal 66 amino acids, N-terminal FLAG epitope) (ligand)	100 pM	10 to 100 pM	4 fold	50%	–	–	–	–	–
–	–	–	–	–	–	–	–	LIGHTt66-FLAG mutant G119E (from UniProt O43557 67-240) (ligand)	–	–	–	–	30 fold	< 1.5 fold	6.94	0.002 s⁻¹	18000 M⁻¹ s⁻¹

From EP1674575A2
